# Target: Bacillus anthracis protective antigen (PA) (Bacillus anthracis) (UniProt P13423)
# Sequence (P13423 30-764 limits assumed): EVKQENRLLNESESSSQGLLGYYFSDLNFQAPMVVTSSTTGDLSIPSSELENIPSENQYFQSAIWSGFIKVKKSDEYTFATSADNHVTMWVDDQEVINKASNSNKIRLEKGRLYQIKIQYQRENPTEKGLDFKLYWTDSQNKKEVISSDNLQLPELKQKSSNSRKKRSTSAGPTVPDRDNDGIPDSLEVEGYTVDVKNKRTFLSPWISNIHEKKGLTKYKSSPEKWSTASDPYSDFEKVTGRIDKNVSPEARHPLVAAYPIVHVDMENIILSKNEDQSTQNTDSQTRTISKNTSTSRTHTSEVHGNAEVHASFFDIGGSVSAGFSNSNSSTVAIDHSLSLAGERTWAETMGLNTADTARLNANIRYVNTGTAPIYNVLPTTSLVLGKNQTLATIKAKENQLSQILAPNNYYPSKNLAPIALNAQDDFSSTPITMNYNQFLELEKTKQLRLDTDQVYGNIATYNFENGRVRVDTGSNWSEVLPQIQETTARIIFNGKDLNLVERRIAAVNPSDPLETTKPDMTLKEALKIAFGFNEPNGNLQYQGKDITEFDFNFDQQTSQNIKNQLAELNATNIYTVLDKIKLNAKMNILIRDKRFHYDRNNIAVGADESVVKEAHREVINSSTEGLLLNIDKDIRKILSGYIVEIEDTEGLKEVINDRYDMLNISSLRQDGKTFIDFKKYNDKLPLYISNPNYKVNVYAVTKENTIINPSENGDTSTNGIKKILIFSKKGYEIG
# Chain of 26-10 scFv-g3p fusion (pAK200) (P69168 268-424): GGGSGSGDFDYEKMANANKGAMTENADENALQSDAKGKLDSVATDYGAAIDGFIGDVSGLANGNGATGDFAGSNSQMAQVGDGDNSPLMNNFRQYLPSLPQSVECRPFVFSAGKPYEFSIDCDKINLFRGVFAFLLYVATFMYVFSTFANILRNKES
substance,measurement,value
26-10 scFv-g3p fusion (pAK200) (from UniProt P69168 268-424),M (mean fluorescence),7.25

# — patent US20060029947A1
